According to PMC5159797:

B1: GST-SKAP [not stated] / GFP-Kif2b [human] (parent)
chain 1: MAAPEAPPLDRVFRTTWLSTECDSHPLPPSYRKFLFETQAADLAGGTTVAAGNLLNESEKDCGQDRRAPGVQPCRLVTMTSVVKTVYSLQPPSALSGGQPADTQTRATSKSLLPVRSKEVDVSKQLHSGGPENDVTKITKLRRENGQMKATDTATRRNVRKGYKPLSKQKSEEELKDKNQLLEAVNKQLHQKLTETQGELKDLTQKVELLEKFRDNCLAILESKGLDPALGSETLASRQESTTDHMDSMLLLETLQEELKLFNETAKKQMEELQALKVKLEMKEERVRFLEQQTLCNNQVNDLTTALKEMEQLLEM
chain 2: MASQFCLPESPCLSPLKPLKPHFGDIQEGIYVAIQRSDKRIHLAVVTEINRENYWVTVEWVEKAVKKGKKIDLETILLLNPALDSAEHPMPPPPLSPLALAPSSAIRDQRTATKWVAMIPQKNQTASGDSLDVRVPSKPCLMKQKKSPCLWEIQKLQEQREKRRRLQQEIRARRALDVNTRNPNYEIMHMIEEYRRHLDSSKISVLEPPQEHRICVCVRKRPLNQRETTLKDLDIITVPSDNVVMVHESKQKVDLTRYLQNQTFCFDHAFDDKASNELVYQFTAQPLVESIFRKGMATCFAYGQTGSGKTYTMGGDFSGTAQDCSKGIYALVAQDVFLLLRNSTYEKLDLKVYGTFFEIYGGKVYDLLNWKKKLQVLEDGNQQIQVVGLQEKEVCCVEEVLNLVEIGNSCRTSRQTPVNAHSSRSHAVFQIILKSGRIMHGKFSLVDLAGNERGADTTKASRKRQLEGAEINKSLLALKECILALGQNKPHTPFRASKLTLVLRDSFIGQNSSTCMIATISPGMTSCENTLNTLRYANRVKKLNVDVRPYHRGHYPIGHEAPRMLKSHIGNSEMSLQRDEFIKIPYVQSEEQKEIEEVETLPTLLGKDTTISGKGSSQWLENIQERAGGVHHDIDFCIARSLSILEQKIDALTEIQKKLKLLLADLHVKSKVE

Variants of: B1
Experiment: GST pull-down, anti-GFP blot quantified
Conditions: with GFP-Kif2b [human]; GFP-Kif2b from HEK293T cell lysates; parent: 1; read off a plot

ratio to parent | Variant
1.2 | chain 1 S232E S237E T294E
0.7 | chain 1 S232A S237A T294A
